Entries after “also recorded” stand apart in the source; their conditions may differ.
B1: CRT-3: fragment (1-291 aa) of recombinantly expressed CRT, amino acid sequence SEQ ID NO: 12 (protein)
chain: EPAVYFKEQFLDGDGWTSRWIESKHKSDFGKFVLSSGKFYGDEEKDKGLQTSQDARFYALSASFEPFSNKGQTLVVQFTVKHEQNIDCGGGYVKLFPNSLDQTDMHGDSEYNIMFGPDICGPGTKKVHVIFNYKGKNVLINKDIRCKDDEFTHLYTLIVRPDNTYEVKIDNSQVESGSLEDDWDFLPPKKIKDPDASKPEDWDERAKIDDPTDSKPEDWDKPEHIPDPDAKKPEDWDEEMDGEWEPPVIQNPEYKGEWKPRQIDNPDYKGTWIHPEIDNPEYSPDPSIYAY
B2: CRT-1: recombinantly expressed full-length CRT (1-400 aa), amino acid sequence SEQ ID NO: 1, expressed in Pichia pastoris (protein)
chain: EPAVYFKEQFLDGDGWTSRWIESKHKSDFGKFVLSSGKFYGDEEKDKGLQTSQDARFYALSASFEPFSNKGQTLVVQFTVKHEQNIDCGGGYVKLFPNSLDQTDMHGDSEYNIMFGPDICGPGTKKVHVIFNYKGKNVLINKDIRCKDDEFTHLYTLIVRPDNTYEVKIDNSQVESGSLEDDWDFLPPKKIKDPDASKPEDWDERAKIDDPTDSKPEDWDKPEHIPDPDAKKPEDWDEEMDGEWEPPVIQNPEYKGEWKPRQIDNPDYKGTWIHPEIDNPEYSPDPSIYAYDNFGVLGLDLWQVKSGTIFDNFLITNDEAYAEEFGNETWGVTKAAEKQMKDKQDEEQRLKEEEEDKKRKEEEEAEDKEDDEDKDEDEEDEEDKEEDEEEDVPGQAKDEL

Key:
[1] = tested on: androgenic alopecia model; assay: First experiment: testosterone-induced androgenic alopecia model, hair observed by dermatoscope and scanning electron microscopy; assay type: in vivo, C57BL/6 male mice; settings: 21 days, proteins 0.21 mg/ml injected on the back once a day, minoxidil 5% external, finasteride 13 μg/mL; for changes in hair observed by dermatoscope: compared with the model group (frizzy hair)
Description: Experimental animals: C57BL/6 male mice, 6-7 weeks old, weighing (20±2) g, were provided by Beijing Vital River Laboratory Animal Technology Co. Ltd., with the animal license number of SCXK (Beijing) 2021-0006. They were kept in a 12 h light/12 h dark environment, with free access to food and water. The mice were divided into normal NC group (NC), model group (Model), positive control-minoxidil group (Minoxidil), positive control-finasteride group (Finasteride), experimental group A and experimental group B. The proteins were stored in a −70° C. refrigerator and diluted with physiological saline when used. Experimental group A used rh-CRT-1, with a concentration of 0.21 mg/ml. Experimental group B used rh-CRT-2, with a concentration of 0.21 mg/ml. There were 6 mice in each group.
The main reagents used are as follows: 4% paraformaldehyde (Beijing Solarbio Technology Co., Ltd., China), isoflurane (Rayward, China), testosterone (Shanghai Standard Biotechnology Co., Ltd., China), paraffin sectioner (Thermo, USA), small animal anesthesia machine (Rayward, China), and inverted microscope (Olympus, Japan).
Modeling and drug administration: First, the androgenic alopecia model was established. One day before the modeling, the hair in the central part of the back of the experimental animal was removed with a skin preparation knife, and the prepared area was depilated with a depilatory cream. After 24 hours of depilation, the modeling agent (testosterone, 5.0 mg/mL) was subcutaneously injected into the neck of the mice in groups except the NC group, with a total dose of 0.2 mL/mouse. The mice in the NC group were injected with an equal amount of normal saline. After modeling, the mice were administrated with drugs. The NC group was injected with normal saline once a day, 0.15 mL/mouse each time. The experimental group A, experimental group B and positive control group were injected with modeling agent (testosterone), and administrated with drugs after 2 hours, and the dose of modeling agent was 0.2 mL/mouse. The experimental group A and experimental group B were injected on the back once a day, 0.15 mL/mouse each time. The positive control minoxidil group was applied 5% minoxidil externally, 0.01 mL/mouse, once a day. The positive control finasteride group was applied finasteride at a concentration of 13 μg/mL, 0.2 mL/mouse, once a day.

[2] = tested on: mice with androgenic alopecia; assay: Second experiment: testosterone hair loss model, hair growth, skin blackness, scanning electron microscopy and hair follicle count; assay type: in vivo, C57BL/6 male mice; settings: for hair growth on the back skin: 17th day, 0.15 mL/mouse once a day; for blackness of the back skin (color tester): Day 17; for blackness of the back skin (color tester) / number of hair follicles (pathological section): P<0.01
Description: Experimental animals: C57BL/6 male mice, 6-7 weeks old, weighing (20±2) g, were provided by Beijing Vital River Laboratory Animal Technology Co. Ltd., with the animal license number of SCXK (Beijing) 2021-0006. They were kept in a 12 h light/12 h dark environment, with free access to food and water. The mice were divided into normal control group (normal group, NC), model group (Model), experimental group C (rh-CRT-2, with a concentration of 0.35 mg/ml) including an injection group and an external application group, experimental group D (rh-CRT-3, with a concentration of 0.21 mg/ml) including an injection group and external application group, and positive control-minoxidil group (Minoxidil). The proteins were stored in a −70° C. refrigerator and diluted with physiological saline when used. There were 6 mice in each group.
Modeling and drug administration: First, the hair loss model was established. One day before the modeling, the hair in the center of the back of the experimental animal was removed with a skin preparation knife, and the prepared skin area was depilated with a depilatory cream. After 24 hours of depilation, the normal control group was given 75% ethanol, and other groups were injected with testosterone solution (5 mg/mL) prepared with 75% ethanol, 0.01 mL/mouse. Two hours later, the injection groups of experimental group C and experimental group D were injected on the back, 0.15 mL/mouse, once a day, for 17 consecutive days; the external application groups of experimental group C and experimental group D were applied on the back, 0.15 mL/mouse, once a day, for 17 consecutive days. The normal control group and the model group were externally applied with physiological saline, once a day, 0.15 mL/mouse, for 17 consecutive days. During the drug administration process, except for the normal control group, all other groups were injected with the modeling agent (testosterone), and administrated with drugs after 2 hours. […] After the experiment, the mouse skin was pathologically sectioned as follows: The skin pathological tissue was fixed in 4% paraformaldehyde, trimmed, dehydrated and transparent, and then embedded. The slices were cut with a thickness of 6 μm using a paraffin slicer, and further dewaxed, stained, dehydrated, transparent and sealed. The hair follicles in different areas were observed under an optical microscope, and the number of hair follicles was statistically analyzed.
Scanning electron microscopy observation: At the end of the experiment, hair shafts were randomly plucked from the newly formed hair area on the back of each group of mice. Three mice were selected from each group. The plucked hair shafts were fixed and the changes of hair shafts and hair cuticles were observed by scanning electron microscopy.
Statistical analysis: All data were processed using SPSS 17.0 software. One-way ANOVA was used for comparisons among multiple groups. Data were expressed as mean±standard deviation (x±s). P<0.05 was considered statistically significant, and P>0.05 was not considered statistically significant.

[3] = tested on: AGA (androgen alopecia) model mice; assay: Fourth experiment: hair growth score in DHT-induced AGA model mice; assay type: in vivo, C57BL/6N male mice; settings: Day 17; for hair growth score compared with the Model group: external application 100 μL, CRT 0.35 mg/ml, MNX 5 mg/ml
Description: The experimental animals were the same as in the third experiment.
The AGA model was established in the same manner as the third experiment, and the administration was carried out as follows: The AGA model was established by injecting dihydrotestosterone into the experimental mice. Dihydrotestosterone (DHT) solution was injected subcutaneously at multiple points every day, 100 μL/mouse (5 mg/kg body weight), and then the drug was administered after 3 h of absorption. CRT-3 and CRT-1 protein solutions were applied externally. 100 μL of protein solution was applied, and 100 μl of minoxidil MNX was applied. The solvent formula comprised 50% ethanol, 20% propylene glycol, and 30% pure water.
The scoring criteria and scoring process were the same as those in the third experiment.

[4] = tested on: AGA (androgenic alopecia) model mice; assay: Third experiment: hair growth score in DHT-induced AGA model mice; assay type: in vivo, C57BL/6N male mice; settings: Day 17
Description: C57BL/6N male mice, 6-7 weeks old, weighing (18-20) g, 50 mice, with the animal license number of SCXK (Beijing) 2021-0006, were kept in a 12 h light/12 h dark environment, with free access to food and water. Adaptive feeding was performed for about 1 week.
The hair in an area of about 2 cm×3 cm at the border of the spine was shaved using an electric shaver. The depilatory area was applied with 8% sodium sulfide solution. After 90±10 s, the depilatory area on the back was cleaned with cotton balls dipped in water, the residual sodium sulfide was washed away with a washing bottle, and then the mice were wiped dry. Because the hair follicle cycle of mice was in the resting phase at this time, the mouse skin was pink. Mice were randomly divided into groups using Excel software, 10 mice in each group, and the modeling was established after 24 h and the drug was administered for 17 consecutive days. The AGA model was established by injecting dihydrotestosterone into the experimental mice. Dihydrotestosterone (DHT) solution was injected subcutaneously at multiple points every day, 100 μL/mouse (5 mg/kg body weight), and then the drug was administered after 3 h of absorption. CRT-2 and CRT-1 protein solutions were applied externally. 100 μL of protein solution was applied, and 100 μl of minoxidil MNX was applied. The CRT and MNX combination group was first applied with CRT-2 protein solution and then MNX 2 hours later. The solvent formula comprised 50% ethanol, 20% propylene glycol, and 30% pure water.
Scoring was based on the coverage of hair growth: • 0 points: no hair growth, pink in the hair removal area; • 1 point: gray in the hair removal area, hair coverage area E<20%; • 2 points: black in the hair removal area, hair coverage area 20%<E<40%; • 3 points: black in the hair removal area with a little hair growth, hair coverage area 40%<E<60%; • 4 points: black in the hair removal area with some hair growth, hair coverage area 60%<E<80%; • 5 points: black in the hair removal area, hair coverage area 80%<E<100%.
The skin color changes of mice were observed before administration every day. The hair removal time of mice was designated as Day 0, the first day of administration was designated as Day 1, and so on. The hair growth of each mouse was recorded and analyzed on Day 7, Day 9, Day 11, Day 13, Day 15, and Day 17.

[5] = external application group, compared with the model group
[6] = injection group, compared with the model group

Row | Molecule | changes in hair observed by dermatoscope [1] | hair cuticles observed by scanning electron microscopy [1] | hair growth on the back skin ([2]; external application group) | hair growth on the back skin ([2]; injection group) | blackness of the back skin (color tester) [2, 5] | blackness of the back skin (color tester) [2, 6] | hair cuticles under scanning electron microscopy [2, 5] | hair shafts under scanning electron microscopy [2, 5] | number of hair follicles (pathological section) [2, 5] | hair cuticles under scanning electron microscopy ([2]; injection group) | hair shafts under scanning electron microscopy ([2]; injection group) | number of hair follicles (pathological section) [2, 6] | hair growth score compared with the Model group ([3]; P<0.05) | hair growth score compared with the CRT-1 group ([3]; external application, P<0.05) | hair growth score compared with the Model group ([4]; external application 100 μL, CRT 0.35 mg/ml, MNX 5 mg/ml, P<0.05) | hair growth score compared with MNX ([4]; external application, P>0.05) | hair growth score compared with MNX ([3]; external application, P>0.05)
1 | CC(C)(C)NC(=O)[C@H]1CC[C@H]2[C@@H]3CC[C@H]4NC(=O)C=C[C@]4(C)[C@H]3CC[C@]12C [finasteride, reference compound] | smooth hair | arranged neatly |  |  |  |  |  |  |  |  |  |  |  |  |  |  | 
2 | B1 |  |  | promoted hair growth | promoted hair growth | significantly increased | significantly increased | dense | became thicker | significantly promoted | dense | thin | significantly promoted | significantly higher; also recorded: significantly increased | better than; also recorded: significantly increased |  |  | 
3 | B2 | smoother | arranged neatly |  |  |  |  |  |  |  |  |  |  | significantly higher |  | significantly higher | no significant difference | no significant difference

— patent US20250000944A1, “USE OF RECOMBINANT CALRETICULIN IN HAIR GROWTH, HAIR BREEDING, HAIR PROTECTION OR ANTI-HAIR LOSS AND RELATED PRODUCT” (BEIJING YITUBAIHUI BIOTECH CO., LTD, priority 2021, published 2025)
